Here are results for 5 substances from paper PMC8960412.

Assay [1] concerns the target anti-PD-1-hIgG1-LALA (human). As to the kind of experiment: SPR; as for human FcRn/β2m: samples immobilised, cyno FcRn/β2m as analyte; pH 6.0. (Surface plasmon resonance follows binding to a sensor surface in real time, without labels.)
For assay [2], the target named is anti-huPD-1-huGITR-L bispecific (Anti-PD-1-GITR-L-hIgG1-LALA) (human) (UniProt Q9UNG2). The description is as above.
In assay [3] the target is isotype-hIgG1-LALA (human). The assay is described as above.
Assay [4] has as its target isotype/huGITR-L-hIgG1-LALA (human). Described as above.
In assay [5] the target is anti-huPD-1-huGITR-L bispecific (Anti-PD-1-GITR-L-hIgG1-LALA) (human) (UniProt Q9UNG2). Briefly: SPR; bispecific captured as in the human SPR, recombinant human or cynomolgus GITR-His as analyte; cross-species experiment (Supplementary Table 11).
Assay [6] deals with human GITR on transfected HEK293 cells (human) (UniProt Q9Y5U5). As to the kind of experiment: flow cytometry on cells; human GITR-HEK293 cells incubated with a serial dilution of antibodies; detected with PE goat anti-human IgG F(ab')2. (In general: A flow cytometer gives signals particle by particle.)
Assay [7] concerns the target anti-PD-1-hIgG1-LALA (human). Briefly: SPR; Biacore T200; samples directly immobilised by amine coupling, human FcRn/β2m as analyte; running buffer pH 6.0.
Assay [8] has as its target anti-huPD-1-huGITR-L bispecific (Anti-PD-1-GITR-L-hIgG1-LALA) (human) (UniProt Q9UNG2). The description is as above.
Assay [9] concerns the target isotype-hIgG1-LALA (human). Described as above.
Assay [10] concerns the target isotype/huGITR-L-hIgG1-LALA (human). Described as above.
Assay [11] deals with anti-huPD-1-huGITR-L bispecific (Anti-PD-1-GITR-L-hIgG1-LALA) (human) (UniProt Q9UNG2). As to the kind of experiment: SPR; Biacore T200; antibody constructs captured by goat anti-human H+L on a CM5 chip, recombinant human GITR-His as analyte; global 1:1 fit (Supplementary Table 3).
For assay [12], the target named is isotype/huGITR-L-hIgG1-LALA (human). The description is as above.

anti-PD-1-hIgG1-LALA (human), sequence (heavy, as listed by the source, chain 1 of 2): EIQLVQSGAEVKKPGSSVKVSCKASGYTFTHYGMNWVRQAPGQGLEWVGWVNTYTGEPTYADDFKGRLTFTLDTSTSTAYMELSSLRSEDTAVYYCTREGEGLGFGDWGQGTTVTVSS
anti-PD-1-hIgG1-LALA (human), sequence (light, as listed by the source, chain 2 of 2): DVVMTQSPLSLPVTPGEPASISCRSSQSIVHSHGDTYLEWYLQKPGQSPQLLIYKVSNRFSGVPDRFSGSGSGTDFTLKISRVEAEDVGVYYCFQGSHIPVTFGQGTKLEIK

For orientation: Kd means a measure of binding affinity in units of concentration. With “cyno FcRn/β2m heterodimer (from UniProt Q8SPV9 24-365; Q8SPW0 21-119) (complex)”, the Kd in assay [1] was determined as 1900 nM; in assay [2], 2000 nM; in assay [3] it was 1700 nM; in assay [4] it was 2200 nM.

As a reminder, the koff is a measure of how fast the partners let go of each other. Usually kon stands for the second-order rate constant of association. Turning to “Cyno GITR-His (recombinant extracellular domain of cynomolgus GITR) (domain or fragment)”, in assay [5], the Kd was 0.79 nM, the koff was found to be 0.00087 s⁻¹ and the kon was determined as 1.1e+06 M⁻¹ s⁻¹.

Usually EC50 stands for the concentration giving half of the maximal effect. For the substance isotype/huGITR-L-hIgG1-LALA, the EC50 in [6] worked out at 0.9 nM.

“human FcRn/β2m heterodimer (from UniProt P55899 24-297; P61769 21-119) (complex)”: the Kd in assay [7] was determined as 2200 nM; in assay [8], 2300 nM; in assay [9], 2000 nM; in assay [10] it was 2400 nM.

Take “Hu GITR-His (recombinant extracellular domain of human GITR) (from UniProt Q9Y5U5 26-162) (domain or fragment)”: in assay [5], the Kd turned out to be 1.8 nM, the koff came out at 0.001 s⁻¹ and the kon was 560000 M⁻¹ s⁻¹. Besides, in assay [11], the Kd was found to be 16 nM, the koff stood at 0.0017 s⁻¹ and the kon is 110000 M⁻¹ s⁻¹. In addition, in [12], the Kd amounted to 15 nM, the koff worked out at 0.0016 s⁻¹ and the kon was 110000 M⁻¹ s⁻¹.
